From paper PMC11365436

Tests used:
[1] = target: strep-CsoS1A (hexameric shell protein) (Halothiobacillus neapolitanus) (UniProt P45689); assay: native gel or EMSA; native 1% agarose protein gel (Tris-acetate-EDTA); proteins mixed in 50 mM Hepes, 150 mM NaCl, 30 min at room temperature; 2.5 μg CsoS1A or BSA, 8.4 μg CsoS2 or 3.5 μg MR variant (0.09 nmol); run 70 min at 60 V in 25 mM Tris, 200 mM glycine, pH 7.5; stained, quantified in FIJI
[2] = target: strep-CsoS1A (hexameric shell protein) (Halothiobacillus neapolitanus) (UniProt P45689)

Sequence of UniProt P45689 (P45689 whole entry): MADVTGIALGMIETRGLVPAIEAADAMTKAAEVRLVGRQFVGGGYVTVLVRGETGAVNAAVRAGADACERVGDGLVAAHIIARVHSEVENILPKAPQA

| percent of shell bound and shifted from its control position [1] [%] | turbidity with 9 μM CsoS1A, compared to wtMR (fold against wtMR) [2] | percent less mobility shift of shell than with full-length CsoS2 [1] [%] | Substance |
| --- | --- | --- | --- |
| > 90 | 5 |  | 6xHis-CsoS2B (full-length CsoS2, long form) (from UniProt O85041-1 1-869) (natural protein) |
|  |  | 25 | 6xHis-wtMR-strep (WT middle region of CsoS2, repeats 1 to 6) (domain or fragment) |
